Measured values taken from publication PMC4726260, “Combined ligand-observe ^19F and protein-observe ^15N,^1H-HSQC NMR suggests phenylalanine as the key Δ-somatostatin residue recognized by human protein disulfide isomerase” (Scientific Reports, 2016).

Tests used:
Assay in all cases: NMR titration; ligand-observed 19F 1D; 0.15 mM fluorinated peptide constant, 15N b'x titrated (ratios 1:4 to 2.5:1); 310 K; 20 mM sodium phosphate pH 7.0, 50 mM NaCl, 5% D6-DMSO, 5% 2H2O, 0.05% sodium azide
[1] = target: F1,2,3 Δ-som
[2] = target: F1 Δ-som
[3] = target: F2 Δ-som
[4] = target: F3 Δ-som

- KD tracked on the F1 (Phe6) 19F resonance [1]: 108 µM
- KD tracked on the F2 (Phe7) 19F resonance [1]: 33 µM
- KD tracked on the F3 (Phe11) 19F resonance [1]: 45 µM
- Kd [1]: 62 µM
- Kd [2]: 109 µM
- Kd [3]: 27 µM
- Kd [4]: 97 µM
Substance: human protein disulphide isomerase (hPDI) fragment b'x (domain or fragment)
